Assay results published in patent US20080064048A1, “Methods for Selecting Proteins that are Readily Presented as Antigens on Dendritic Cells” (Medical and Biological Laboratories, Co., Ltd., priority 2004, published 2008).

Assays:
Format in all cases: binding
PDI = target: T1, PDI (Mus musculus, UniProt P09103); experiment: Co-immunoprecipitation of bOVA with anti-PDI; details: DC2.4 cells incubated with bOVA
T1 construct: Three types of ER resident proteins; endogenous in cells; host or cells: DC2.4 mouse dendritic cell line
T1 sequence (P09103 20-509): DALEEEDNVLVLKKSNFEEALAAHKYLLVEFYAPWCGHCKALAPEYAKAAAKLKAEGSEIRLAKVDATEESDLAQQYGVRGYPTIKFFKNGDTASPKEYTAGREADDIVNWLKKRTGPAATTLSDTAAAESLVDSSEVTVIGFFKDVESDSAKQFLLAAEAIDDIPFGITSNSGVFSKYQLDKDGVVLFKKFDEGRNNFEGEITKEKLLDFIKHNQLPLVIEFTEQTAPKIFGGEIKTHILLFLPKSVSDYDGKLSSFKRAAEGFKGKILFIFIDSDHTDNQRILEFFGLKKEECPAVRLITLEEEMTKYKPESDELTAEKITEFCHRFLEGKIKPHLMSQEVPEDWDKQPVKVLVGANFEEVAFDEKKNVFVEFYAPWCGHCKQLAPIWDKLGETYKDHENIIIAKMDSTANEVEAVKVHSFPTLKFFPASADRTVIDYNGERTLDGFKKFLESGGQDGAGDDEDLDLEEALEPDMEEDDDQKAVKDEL
Description: (§1) 2×10^7 DC2.4 or BMDC cells were cultured for four hours in a medium containing 10 μM MG-132 in the presence of bOVA at 250 μg mL^−1. Cells were lysed in 20 mM HEPES pH7.6 containing 1% digitonin and protease inhibitors to collect biotin-labeled samples. The samples were cleared of impurities in advance using protein G sepharose (Amersham Pharmacia Biotech), and after incubation with antibodies for precipitation (anti-Sec61β, anti Sec61α, anti-VCP, anti-BiP, anti-PDI, anti-calreticulin, anti-TAP1, and anti-TAP2), the immunoprecipitates were collected using protein G. When chicken anti-CHIP antibody was used, immunoprecipitates were collected using a rabbit anti-IgY column (a person, MBL). The precipitated samples were analyzed by SDS-PAGE and Western blotting.

TAP2 = target: T2, TAP2 (Mus musculus, UniProt P36371); experiment: Co-immunoprecipitation of bOVA with anti-TAP2; details: DC2.4 cells incubated with bOVA
T2 construct: endogenous in cells; host or cells: DC2.4 mouse dendritic cell line
T2 sequence (P36371 1-702): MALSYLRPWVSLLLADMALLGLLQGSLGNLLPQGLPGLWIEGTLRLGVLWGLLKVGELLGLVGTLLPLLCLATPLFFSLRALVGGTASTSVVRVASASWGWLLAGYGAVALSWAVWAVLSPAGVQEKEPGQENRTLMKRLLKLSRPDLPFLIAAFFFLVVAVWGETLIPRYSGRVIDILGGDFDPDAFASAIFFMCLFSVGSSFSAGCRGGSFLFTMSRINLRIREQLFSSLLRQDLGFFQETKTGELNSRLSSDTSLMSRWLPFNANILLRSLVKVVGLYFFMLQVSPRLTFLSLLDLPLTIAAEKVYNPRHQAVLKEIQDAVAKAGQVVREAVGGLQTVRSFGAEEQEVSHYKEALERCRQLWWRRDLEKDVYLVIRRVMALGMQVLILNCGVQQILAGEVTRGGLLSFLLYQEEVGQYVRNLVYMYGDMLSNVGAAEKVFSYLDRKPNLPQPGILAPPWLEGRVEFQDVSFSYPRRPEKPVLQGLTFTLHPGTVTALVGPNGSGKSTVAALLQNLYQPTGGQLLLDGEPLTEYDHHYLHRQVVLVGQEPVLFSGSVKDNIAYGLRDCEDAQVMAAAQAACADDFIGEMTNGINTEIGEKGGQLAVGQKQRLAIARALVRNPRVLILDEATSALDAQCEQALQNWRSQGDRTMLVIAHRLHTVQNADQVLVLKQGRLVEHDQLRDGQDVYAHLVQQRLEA
T2 sequence (P21958 1-724 partner): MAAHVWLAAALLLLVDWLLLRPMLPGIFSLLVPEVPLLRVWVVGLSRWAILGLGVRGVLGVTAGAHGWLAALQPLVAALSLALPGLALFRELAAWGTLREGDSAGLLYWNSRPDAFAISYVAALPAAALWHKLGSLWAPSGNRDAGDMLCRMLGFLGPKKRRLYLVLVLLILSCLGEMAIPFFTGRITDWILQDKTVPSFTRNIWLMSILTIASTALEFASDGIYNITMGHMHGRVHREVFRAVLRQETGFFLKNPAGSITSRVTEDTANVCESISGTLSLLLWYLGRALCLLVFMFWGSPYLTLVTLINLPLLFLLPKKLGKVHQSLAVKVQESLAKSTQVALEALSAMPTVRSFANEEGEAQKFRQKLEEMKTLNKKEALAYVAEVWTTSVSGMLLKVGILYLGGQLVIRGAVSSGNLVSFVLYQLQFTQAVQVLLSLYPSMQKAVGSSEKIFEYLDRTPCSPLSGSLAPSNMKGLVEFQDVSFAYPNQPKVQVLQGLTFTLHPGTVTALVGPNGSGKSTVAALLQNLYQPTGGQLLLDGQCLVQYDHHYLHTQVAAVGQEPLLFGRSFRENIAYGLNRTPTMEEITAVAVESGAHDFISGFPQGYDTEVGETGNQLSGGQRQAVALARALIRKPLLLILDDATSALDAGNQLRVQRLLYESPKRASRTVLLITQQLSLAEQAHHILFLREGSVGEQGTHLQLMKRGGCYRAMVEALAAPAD
Description: as §1

Sec61β = target: T3, Sec61β (Mus musculus, UniProt Q9CQS8); experiment: Co-immunoprecipitation of bOVA with anti-Sec61β
T3 construct: endogenous in cells; host or cells: DC2.4 mouse dendritic cell line; bone marrow-derived dendritic cells
Description: as §1

VCP = target: T4, VCP (Mus musculus, UniProt Q01853); experiment: Co-immunoprecipitation of bOVA with anti-VCP
T4 construct: endogenous in cells; host or cells: DC2.4 mouse dendritic cell line; bone marrow-derived dendritic cells
Description: as §1

TAP1 = target: T5, TAP1 (Mus musculus, UniProt P21958); experiment: Co-immunoprecipitation of bOVA with anti-TAP1; details: DC2.4 cells incubated with bOVA
T5 construct: endogenous in cells; host or cells: DC2.4 mouse dendritic cell line
T5 sequence (P21958 1-724): T2 sequence (P21958 1-724 partner)
Description: as §1

BiP = target: T6, BiP (Mus musculus, UniProt P20029); experiment: Co-immunoprecipitation of bOVA with anti-BiP; details: DC2.4 cells incubated with bOVA
T6 construct: BiP, an endogenous ER protein, was detected in the same microsomal fraction; endogenous in cells; host or cells: DC2.4 mouse dendritic cell line
Description: as §1

[1] = DC2.4 cells incubated with bOVA

T4 sequence (Q01853 2-806 limits assumed): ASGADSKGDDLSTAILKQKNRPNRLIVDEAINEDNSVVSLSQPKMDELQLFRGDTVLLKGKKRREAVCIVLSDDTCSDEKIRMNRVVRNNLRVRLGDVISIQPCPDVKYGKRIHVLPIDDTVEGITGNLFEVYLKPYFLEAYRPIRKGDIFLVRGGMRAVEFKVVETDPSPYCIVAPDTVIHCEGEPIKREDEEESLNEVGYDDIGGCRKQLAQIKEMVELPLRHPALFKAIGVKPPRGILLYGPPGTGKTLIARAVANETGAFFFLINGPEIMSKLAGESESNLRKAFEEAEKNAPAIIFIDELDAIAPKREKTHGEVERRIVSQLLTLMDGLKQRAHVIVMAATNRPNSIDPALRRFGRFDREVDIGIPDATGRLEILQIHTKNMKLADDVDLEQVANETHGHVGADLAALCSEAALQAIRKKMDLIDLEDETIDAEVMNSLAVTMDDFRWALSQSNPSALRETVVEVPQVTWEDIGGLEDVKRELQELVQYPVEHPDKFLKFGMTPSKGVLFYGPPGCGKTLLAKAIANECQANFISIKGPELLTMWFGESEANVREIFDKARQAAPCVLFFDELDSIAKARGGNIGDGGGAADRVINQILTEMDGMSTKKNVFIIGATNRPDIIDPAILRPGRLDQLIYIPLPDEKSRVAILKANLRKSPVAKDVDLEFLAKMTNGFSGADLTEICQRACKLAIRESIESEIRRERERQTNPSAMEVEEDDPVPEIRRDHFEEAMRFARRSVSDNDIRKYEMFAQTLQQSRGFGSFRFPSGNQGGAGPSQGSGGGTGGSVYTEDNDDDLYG
T3 sequence (Q9CQS8 2-96 limits assumed): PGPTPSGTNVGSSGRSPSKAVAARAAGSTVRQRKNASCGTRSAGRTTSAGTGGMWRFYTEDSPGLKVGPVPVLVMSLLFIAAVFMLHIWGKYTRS
T3 sequence (P61620 whole entry partner): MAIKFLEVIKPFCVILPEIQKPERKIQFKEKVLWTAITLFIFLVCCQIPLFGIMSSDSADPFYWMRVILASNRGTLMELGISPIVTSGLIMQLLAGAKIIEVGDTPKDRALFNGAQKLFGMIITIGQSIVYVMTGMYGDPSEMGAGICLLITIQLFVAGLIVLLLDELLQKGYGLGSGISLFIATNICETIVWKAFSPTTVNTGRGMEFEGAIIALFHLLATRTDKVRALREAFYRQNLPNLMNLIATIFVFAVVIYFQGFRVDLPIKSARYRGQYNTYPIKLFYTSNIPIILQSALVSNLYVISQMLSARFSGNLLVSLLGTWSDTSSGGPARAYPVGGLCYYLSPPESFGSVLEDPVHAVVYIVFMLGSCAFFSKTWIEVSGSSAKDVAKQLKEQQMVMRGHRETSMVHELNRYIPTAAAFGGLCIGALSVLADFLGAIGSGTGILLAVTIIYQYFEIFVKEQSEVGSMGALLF
T3 sequence (P60060 whole entry partner): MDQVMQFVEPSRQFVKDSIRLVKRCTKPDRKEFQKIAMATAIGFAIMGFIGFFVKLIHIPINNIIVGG
T6 sequence (P20029 20-655): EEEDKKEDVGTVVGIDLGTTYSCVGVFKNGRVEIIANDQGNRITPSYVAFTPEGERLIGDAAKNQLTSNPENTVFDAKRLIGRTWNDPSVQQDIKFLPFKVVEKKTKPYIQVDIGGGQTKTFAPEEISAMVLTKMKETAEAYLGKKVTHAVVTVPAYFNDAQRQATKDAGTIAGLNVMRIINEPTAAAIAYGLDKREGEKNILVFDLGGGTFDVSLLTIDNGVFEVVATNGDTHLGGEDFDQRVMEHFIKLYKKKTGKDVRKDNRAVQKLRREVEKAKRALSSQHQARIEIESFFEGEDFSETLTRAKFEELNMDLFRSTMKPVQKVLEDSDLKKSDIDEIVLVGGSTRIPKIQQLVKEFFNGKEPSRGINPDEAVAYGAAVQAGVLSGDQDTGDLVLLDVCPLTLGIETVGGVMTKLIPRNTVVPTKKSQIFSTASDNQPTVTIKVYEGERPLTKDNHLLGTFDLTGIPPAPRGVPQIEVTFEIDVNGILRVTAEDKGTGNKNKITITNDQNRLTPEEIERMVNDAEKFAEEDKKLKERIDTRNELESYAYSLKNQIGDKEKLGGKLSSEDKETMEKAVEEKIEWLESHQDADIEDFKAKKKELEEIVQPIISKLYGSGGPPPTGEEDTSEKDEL

B1: bOVA: biotin-labeled OVA antigen (protein)
chain: GSIGAASMEFCFDVFKELKVHHANENIFYCPIAIMSALAMVYLGAKDSTRTQINKVVRFDKLPGFGDSIEAQCGTSVNVHSSLRDILNQITKPNDVYSFSLASRLYAEERYPILPEYLQCVKELYRGGLEPINFQTAADQARELINSWVESQTNGIIRNVLQPSSVDSQTAMVLVNAIVFKGLWEKAFKDEDTQAMPFRVTEQESKPVQMMYQIGLFRVASMASEKMKILELPFASGTMSMLVLLPDEVSGLEQLESIINFEKLTEWTSSNVMEERKIKVYLPRMKMEEKYNLTSVLMAMGITDVFSSSANLSGISSAESLKISQAVHAAHAEINEAGREVVGSAEAGVDAASVSEEFRADHPFLFCIKHIATNAVLFFGRCVSP
With B1 the “interaction with PDI (co-immunoprecipitation)” value (PDI) was “interacts”, the “interaction with TAP2 (co-immunoprecipitation)” value (TAP2) was “does not interact” and the “interaction with Sec61β (co-immunoprecipitation)” value (Sec61β; BMDCs) was “interacts”. The “interaction with Sec61β (co-immunoprecipitation)” value (Sec61β; [1]) was “interacts”, the “interaction with VCP (co-immunoprecipitation)” value (VCP; BMDCs) was “interacts” and the “interaction with VCP (co-immunoprecipitation)” value (VCP; [1]) was “interacts”. The “interaction with TAP1 (co-immunoprecipitation)” value (TAP1) was “does not interact” and the “interaction with BiP (co-immunoprecipitation)” value (BiP) was “interacts”.
